Experimental data as given in article PMC8891019, “TDP-43 represses cryptic exon inclusion in the FTD–ALS gene UNC13A”.
Positions count from the first letter of the chain named.

Tests used:
[1] = target: T1, TDP-43-MBP (full-length wild-type TDP-43) (UniProt Q13148 1-414); assay: EMSA; Kd,app only in figure; much lower affinity than intron probe; EMSA: 1 nM RNA, 50 mM Tris-HCl pH 7.5, 100 mM KCl, 2 mM MgCl2, 100 mM beta-mercaptoethanol, 0.1 mg/ml BSA, 30 min, room temperature; TDP-43 0-4 (printed mM in Methods, 0-8 uM in legend); 6% native PAGE, Cy5 imaging; details: protein: recombinant, tags: MBP, Ni-NTA purified, label: 5' Cy3 on strand 1, 3' Cy5 on 18-mer
[2] = target: T1, TDP-43-MBP (full-length wild-type …); assay: EMSA; Kd,app only in figure; affinity similar to CE Ref; EMSA: 1 nM RNA, 50 mM Tris-HCl pH 7.5, 100 mM KCl, 2 mM MgCl2, 100 mM beta-mercaptoethanol, 0.1 mg/ml BSA, 30 min, room temperature; TDP-43 0-4 (printed mM in Methods, 0-8 uM in legend); 6% native PAGE, Cy5 imaging; details: protein: recombinant; tags: MBP; Ni-NTA purified; label: 5' Cy3 on strand 1; 3' Cy5 on 18-mer; 18 bp duplex at 3' end of strand 1, 5' ssRNA overhang 26 nt
[3] = target: T1, TDP-43-MBP (full-length wild-type …); assay: EMSA; Kd,app only in figure; much higher affinity than exon or repeat; EMSA: 1 nM RNA, 50 mM Tris-HCl pH 7.5, 100 mM KCl, 2 mM MgCl2, 100 mM beta-mercaptoethanol, 0.1 mg/ml BSA, 30 min, room temperature; TDP-43 0-4 (printed mM in Methods, 0-8 uM in legend); 6% native PAGE, Cy5 imaging; details: protein: recombinant; tags: MBP; Ni-NTA purified; label: 5' Cy3 on strand 1; 3' Cy5 on 18-mer; 18 bp duplex at 3' end of strand 1, 5' ssRNA overhang

T1 sequence (Q13148 whole entry): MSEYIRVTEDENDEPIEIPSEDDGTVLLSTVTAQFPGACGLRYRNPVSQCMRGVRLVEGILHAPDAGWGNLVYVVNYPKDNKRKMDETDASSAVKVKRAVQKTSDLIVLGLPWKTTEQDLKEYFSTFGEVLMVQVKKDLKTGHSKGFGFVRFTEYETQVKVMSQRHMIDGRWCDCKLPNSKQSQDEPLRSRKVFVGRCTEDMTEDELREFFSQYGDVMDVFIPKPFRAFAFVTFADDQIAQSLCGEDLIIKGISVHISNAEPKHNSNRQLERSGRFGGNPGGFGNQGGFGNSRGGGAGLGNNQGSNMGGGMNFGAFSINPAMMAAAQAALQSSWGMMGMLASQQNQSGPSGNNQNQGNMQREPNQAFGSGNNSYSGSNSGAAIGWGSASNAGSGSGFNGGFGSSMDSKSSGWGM

B1: CE Ref (G), rs12973192 (mixed)
RNA 1: AAGGAUGGAUGGAGAGAUGGGUGAGUGCCUCGCUGCCGUCGCCA
RNA 2: UGGCGACGGCAGCGAGGC
modifications: 5' biotin on 18-mer strand
[1]; 18 bp duplex at 3' end of strand 1, 5' ssRNA overhang 26 nt
  binding result: binds

B2: CE Risk (C), rs12973192 (mixed)
RNA 1: B1 RNA 1 with G4C
RNA 2: UGGCGACGGCAGCGAGGC
modifications: 5' biotin on 18-mer strand
[2]
  binding result: binds

B3: Intron Ref (U), rs12608932 (mixed)
RNA 1: AAUGGAUGGUUGGAUAAAUUGAUGGGUGGAUGGAUGCCUCGCUGCCGUCGCCA
RNA 2: UGGCGACGGCAGCGAGGC
modifications: 5' biotin on 18-mer strand
[3]
  binding result: binds

B4: Repeat Ref ((GATG)4), rs56041637 (mixed)
RNA 1: UGGAUGGAUGGAUGGAUGGAGCCUCGCUGCCGUCGCCA
RNA 2: UGGCGACGGCAGCGAGGC
modifications: 5' biotin on 18-mer strand
[1]; 18 bp duplex at 3' end of strand 1, 5' ssRNA overhang 20 nt
  binding result: binds
